Molecular target: the molecule itself
Experiment: mass photometry

B1: SH3-domain containing protein 2 (SH3P2), purified full-length protein (natural protein, Arabidopsis thaliana, UniProt Q8VWF1 1-368, looked up)
chain: MDAIRKQASRLREQVARQQQAVFKQFGGGGYGSGLADEAELNQHQKLEKLYISTRAAKHYQRDIVRGVEGYIVTGSKQVEIGTKLSEDSRKYGSENTCTNGNVLTRAALNYGRARAQMEKERGNMLKALGTQVAEPLRAMVLGAPLEDARHLAQRYDRMRQEAEAQATEVARRQAKARESQGNPDILMKLESAEAKLHDLKSNMTILGKEAASALASVEDQQQKLTLERLLSMVESERAYHQRVLQILDQLEGEMVSERQRIEAPSTPSSADSMPPPPSYEEANGVFASQMHDTSTDSMGYFLGEVLFPYHGVTDVELSLSTGEYVVVRKVTGSGWAEGECKGKAGWFPYGYIERRERVLASKVSEVF
Which “stoichiometry N” value does the source give for B1 here?
The value was 2.

Source: doi:10.1101/2023.10.09.561523 (bioRxiv, 2023)
